Measured values as given in US20260109763A1 (DENALI THERAPEUTICS, published 2026).
Substitutions are numbered along the chain they refer to. Read-outs that look alike come from different tables or passages of the source. One block for each binder: values may come before it.

How the values were obtained:
[1] = target: T1, human PILRB extracellular domain (recombinant) (human, UniProt Q9UKJ0 20-191); test: SPR, Biacore 8K, recombinant ECD
T1 construct: also called hPILRB
Procedure: (§1) Antibodies were captured on Biacore™ Series S CM5 sensor chips immobilized with mouse anti-human Fab (human Fab capture kit from GE Healthcare) followed by injections of serial 3-fold dilutions of recombinant ECD reagents at a flow rate of 30 μL/min. Each sample was analyzed using a 3-minute association followed by a 10-minute dissociation. After each injection, the sensor chip was regenerated using a 5 0 mM glycine pH2.0 regeneration buffer. A 1:1 Languir model of simultaneous fitting of kₒₙ and koff was used for kinetics analysis.

[2] = target: T2, cynomolgus monkey PILRA extracellular domain (recombinant) (cynomolgus monkey); test: SPR, Biacore 8K, recombinant ECD
T2 construct: also called cynoPILRA; Cyno PILRA
T2 sequence (chain, as listed by the source limits assumed): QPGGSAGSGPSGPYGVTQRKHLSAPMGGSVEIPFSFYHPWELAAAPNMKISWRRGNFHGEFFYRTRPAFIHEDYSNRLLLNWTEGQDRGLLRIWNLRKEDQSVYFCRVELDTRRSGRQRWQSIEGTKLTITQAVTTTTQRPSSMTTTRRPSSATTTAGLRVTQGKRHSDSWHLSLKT
Procedure: as §1

human PILRB on cells [3] = target: T3, human PILRB on cells (human, UniProt Q9UKJ0 20-227); test: flow cytometry, CHO cells expressing hPILRB, MFI as fold over isotype control
T3 construct: Expressed on CHO-K1 cells, or together with DAP12 on HEK293 cells (hPILRB-DAP12 OE HEK293); also called hPILRB; hPILRB-DAP12
T3 sequence (Q9UKJ0 20-227 limits assumed): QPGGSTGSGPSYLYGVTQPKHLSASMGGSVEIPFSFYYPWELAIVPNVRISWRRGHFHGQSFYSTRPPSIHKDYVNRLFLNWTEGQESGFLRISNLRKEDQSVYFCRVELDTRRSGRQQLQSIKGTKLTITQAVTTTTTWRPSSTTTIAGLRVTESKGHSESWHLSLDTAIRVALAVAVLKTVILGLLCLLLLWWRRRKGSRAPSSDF

[4] = target: T4, cynomolgus monkey PILRA on cells (cynomolgus monkey); test: flow cytometry, CHO cells expressing cynoPILRA, MFI as fold over isotype control
T4 construct: Expressed on CHO-K1 cells; also called cynoPILRA; cyno PILRA
T4 sequence (chain, as listed by the source limits assumed): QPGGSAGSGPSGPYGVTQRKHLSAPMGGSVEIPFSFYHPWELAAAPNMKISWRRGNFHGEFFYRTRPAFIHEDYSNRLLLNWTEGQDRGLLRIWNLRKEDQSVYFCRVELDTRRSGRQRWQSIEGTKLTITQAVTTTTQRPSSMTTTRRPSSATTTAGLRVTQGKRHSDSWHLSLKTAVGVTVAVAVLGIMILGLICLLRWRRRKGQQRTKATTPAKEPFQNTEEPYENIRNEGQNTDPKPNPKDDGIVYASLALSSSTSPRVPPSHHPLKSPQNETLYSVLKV

human PILRA G78 on cells [5] = target: T5, human PILRA G78 on cells (human, UniProt Q9UKJ1 20-303); test: flow cytometry on HEK293 cells expressing hPILRA G78
T5 construct: wild-type iMicroglia are R78/G78 heterozygous (said in the assay field); also called hPILRA; hPILRA G78
T5 sequence (Q9UKJ1 20-303 R78G limits assumed): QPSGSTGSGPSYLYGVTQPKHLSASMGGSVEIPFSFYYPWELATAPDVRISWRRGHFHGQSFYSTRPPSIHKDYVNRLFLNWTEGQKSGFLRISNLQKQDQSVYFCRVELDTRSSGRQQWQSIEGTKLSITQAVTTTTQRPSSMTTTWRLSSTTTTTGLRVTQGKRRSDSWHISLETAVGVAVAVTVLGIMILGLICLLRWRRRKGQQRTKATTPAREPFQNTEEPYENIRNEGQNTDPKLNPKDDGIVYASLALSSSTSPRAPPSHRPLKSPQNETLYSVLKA
Procedure: Parental HEK293 cells were labeled with NucBlue Live ReadyProbes Reagent for 30 mins. […] Antibody binding to the cells was detected by FACS and median fluorescence intensity (MFI) was derived from data analysis performed with the FLOJO software (FIGS. 1A-1C).

human PILRA G78 on cells [6] = target: T5, human PILRA G78 on cells; test: cell-based or functional assay
human PILRB on cells [7] = target: T3, human PILRB on cells; test: flow cytometry (MFI), CHO-K1 cells expressing hPILRB
Procedure: Antibody binding to the cells was detected by FACS and MFI was derived from data analysis performed with the FLOJO software.

[8] = target: T6, human PILRA G78 extracellular domain (recombinant hPILRA ECD) (human, UniProt Q9UKJ1 20-197); test: SPR, Biacore 8K; antibody captured via anti-human Fab, recombinant ECD injected; 1:1 fit;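 note: CM5 sensor chip, ECD analyte in threefold dilution series at 30 µL/min, 3 min association and 10 min dissociation, kon and koff fitted simultaneously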
T6 construct: also called hPILRA G78
T6 sequence (Q9UKJ1 20-197 R78G limits assumed): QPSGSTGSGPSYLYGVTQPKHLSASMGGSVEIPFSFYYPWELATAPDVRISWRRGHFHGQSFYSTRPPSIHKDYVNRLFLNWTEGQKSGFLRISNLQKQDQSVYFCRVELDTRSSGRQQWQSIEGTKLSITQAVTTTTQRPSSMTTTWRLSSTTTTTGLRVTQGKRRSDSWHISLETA

[9] = target: T2, cynomolgus monkey PILRA extracellular …; test: as above
human PILRA G78 on cells [10] = target: T5, human PILRA G78 on cells; test: flow cytometry on HEK293 PILRA G78 cells with sialidase treatment
Procedure: (§2) PILRA 78G or PILRA 78R expressing HEK293 cells were treated with SialEXO (Genovis). […] It is a combination of two sialidases acting on α2-3, α2-6 and α2-8 linkages. […] Cells were then washed twice and incubated and stained with NucBlue Live Stain for 30 mins at RT.

human PILRA R78 on cells [11] = target: T7, human PILRA R78 on cells (human, UniProt Q9UKJ1 20-303); test: flow cytometry on HEK293 PILRA R78 cells without sialidase treatment; without sialidase treatment
T7 construct: also called hPILRA R78; PILRA 78R
T7 sequence (Q9UKJ1 20-303 limits assumed): as the sequence (Q9UKJ1 20-303 R78G limits assumed) above, with G59R counted along it
Procedure: as §2
(§3) Following the same protocol, sialidase treatment was also performed on HEK cells expressing PILRA R78.

human PILRA R78 on cells [12] = target: T7, human PILRA R78 on cells; test: flow cytometry on HEK293 PILRA R78 cells with sialidase treatment; with sialidase treatment
Procedure: as §2, §3

human PILRA G78 on cells [13] = target: T5, human PILRA G78 on cells; test: flow cytometry on HEK293 PILRA G78 cells without sialidase treatment
Procedure: as §2

human PILRA R78 on cells [14] = target: T7, human PILRA R78 on cells; test: cell-based or functional assay
[15] = target: T6, human PILRA G78 extracellular domain …; test: SPR, Biacore 8K; hPILRA ECD; antibody with wild-type Fc
Procedure: as §1
Characterization for binding affinities of the humanized antibodies to hPILRA ECD were measured by SPR using a Biacore 8K instrument (Table 7).

human PILRA G78 on cells [16] = target: T5, human PILRA G78 on cells; test: cell-based or functional assay; remark: listed apart in the source
human PILRA R78 on cells [17] = target: T7, human PILRA R78 on cells; test: flow cytometry on PILRA R78 expressing HEK293 cells (FIG. 1F); HEK293 cells expressing PILRA R78
Procedure: (§4) PILRA G78 or R78 overexpressing HEK293 cells were stained with NucBlue Live cell stain for 30 mins at RT. […] Cell lines were run in duplicate to account for intra-variability, for a total of N=3. The same protocol was used for CHO-K1 cells expressing hPILRA G78.

human PILRA G78 on cells [18] = target: T5, human PILRA G78 on cells; test: flow cytometry on PILRA G78 expressing CHO-K1 cells (FIG. 1H)
Procedure: as §4

[19] = target: T1, human PILRB extracellular domain …; test: SPR
[20] = target: T6, human PILRA G78 extracellular domain …; test: SPR
[21] = target: T8, human PILRA R78 extracellular domain (recombinant) (human, UniProt Q9UKJ1 20-197); test: SPR
T8 construct: also called hPILRA R78
T8 sequence (Q9UKJ1 20-197 limits assumed): as the sequence (Q9UKJ1 20-197 R78G limits assumed) above, with G59R counted along it

[22] = target: T2, cynomolgus monkey PILRA extracellular …; test: SPR
human PILRA G78 on cells [23] = target: T5, human PILRA G78 on cells; test: flow cytometry on HEK293 cells expressing hPILRA G78; remark: listed apart in the source

T1 sequence (Q9UKJ0 20-191 limits assumed): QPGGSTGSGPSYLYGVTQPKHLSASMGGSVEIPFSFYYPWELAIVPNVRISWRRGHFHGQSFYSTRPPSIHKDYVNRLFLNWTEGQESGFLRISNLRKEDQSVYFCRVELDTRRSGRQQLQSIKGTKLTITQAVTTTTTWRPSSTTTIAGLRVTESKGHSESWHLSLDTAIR

B1: Reference Antibody #1 (antibody, human IgG1, kappa, L234A L235A, V domains shown)
VH: QVTLQESGPGILQPSQTLSLTCSFSGFSLSTFGMGVGWIRQPSGKGLEWLAHIWWDDDKYYNPALKSRLTISKDTSKNQVFLKIASVDTADIATYYCARVEDYGNPFDYWGQGTTLTVSS
VL: DIQMNQSPSSLSASLGDTITITCHASQNIHVWLNWYQQKPGNIPKLLIYKASNLHTGVPSRFSGSGSGTGFTVTISSLQPEDIATYYCQQGQSYPLTFGAGTKLELKR
binding result [1]: no binding
binding result [2]: no binding
binding result (human PILRB on cells [3]): no binding (tested: 100 nM)
binding result [4]: no binding (tested: 100 nM)

B4: Anti-PILRA antibody clone 1 (antibody, V domains shown)
VH: EVQLVESGGGLVQPGRSLRLSCAVSGFTFDDYAMHWVRQAPGKGLEWVSGFSWNSGSIGYPDSVKGRFTISRDNAKNSLYLQMNSLRAEDTAFYYCAKDKSISAAGRFDYWGQGTLVTVSS
VL: DIQMTQSPSSLSASVGDRVTITCQASRRINNYLNWYQQKPGKAPKLLIYDASNLETGVPSRFTGSGSGTDFTLTISSLQPEDIATYYCQQYDNLPLTFGGGTKIKIK
EC50 (human PILRA G78 on cells [10]): 1.8 nM
EC50 (human PILRA G78 on cells [5]): 13.8 nM
pSTAT3 Y705 induction, EC50 (nM) (human PILRA G78 on cells [6]): 5.66 nM
pSTAT3 Y705 induction, Fold Over Background (human PILRA G78 on cells [6]): 16.2 fold
EC50 (human PILRA R78 on cells [11]): 14 nM
binding result [1]: no binding
binding result (human PILRB on cells [7]): no binding (tested: 100 nM)
Kd [8]: 2.3 nM
Kd [9]: 0.91 nM
EC50 (human PILRA R78 on cells [12]): 5.6 nM
EC50 (human PILRA G78 on cells [13]): 6.8 nM

Results, then the binder that gave them:

binding result [1]: no binding
binding result [2]: no binding
binding result (human PILRB on cells [3]): no binding (tested: 100 nM)
binding result [4]: no binding (tested: 100 nM)
B2: Reference Antibody #4 (antibody, human IgG1, kappa, L234A L235A, V domains shown)
VH: B1 VH with Q5K, S30T, T75I, S86N, I92T, V100I
VL: B1 VL with N34S, V73L

EC50 (human PILRA G78 on cells [5]): 24.9 nM
pSTAT3 Y705 induction, EC50 (nM) (human PILRA G78 on cells [6]): 1.98 nM
pSTAT3 Y705 induction, Fold Over Background (human PILRA G78 on cells [6]): 14.7 fold
binding result [1]: no binding
binding result (human PILRB on cells [7]): no binding (tested: 100 nM)
Kd [8]: 8.3 nM
Kd [9]: 7.4 nM
B3: Anti-PILRA antibody clone 4 (antibody, human IgG1, kappa, L234A L235A, V domains shown)
VH: B4 VH with V24A, M34I, F51M, P61G, S103G, Y110S
VL: not shown
notes: also called Ab; Clone 4; Ab.4

EC50 (human PILRA G78 on cells [10]): 9.8 nM
EC50 (human PILRA G78 on cells [5]): 32.5 nM
pSTAT3 Y705 induction, EC50 (nM) (human PILRA G78 on cells [6]): 1.51 nM
pSTAT3 Y705 induction, Fold Over Background (human PILRA G78 on cells [6]): 15.8 fold
EC50 (human PILRA R78 on cells [11]): 1.3 nM
binding result [1]: no binding
binding result (human PILRB on cells [7]): no binding (tested: 100 nM)
Kd [8]: 0.66 nM
Kd [9]: 19 nM
EC50 (human PILRA R78 on cells [12]): 0.9 nM
EC50 (human PILRA G78 on cells [13]): 17 nM
B5: Anti-PILRA antibody clone 5 (antibody, human IgG1, kappa, L234A L235A, V domains shown)
VH: QVQLVQSGAEVKKPGASVRVSCKASGYTFIGFYIHWVRQAPGQGLEWMGWINPESGDTTYAQKFQGRVTMTTDTSINTAYMDLNRLRSDDSAVYFCARGNWNFPDTFDFWGQGTMVIVSS
VL: DIQMTQSPSSLSASVGDRVTITCRSSQSISIYLNWHQQIPGKAPKLLIYVASSLQSGIPSRFSGRGSGTEFTLTISSLQPEDFATYYCQQSYSAPFTFGPGTKVDIKR
notes: also called Ab; Clone 5; Ab.5

pSTAT3 S727 induction, EC50 (nM) (human PILRA R78 on cells [14]): 14.6 nM
pSTAT3 S727 induction, Fold Over Background (human PILRA R78 on cells [14]): 28.5 fold
pSTAT3 Y705 induction, EC50 (nM) (human PILRA R78 on cells [14]): 7.55 nM
pSTAT3 Y705 induction, Fold Over Background (human PILRA R78 on cells [14]): 36.2 fold
Kd [15]: 0.495 nM
pSTAT3 S727 induction, EC50 (nM) (human PILRA G78 on cells [16]): 20.1 nM
pSTAT3 S727 induction, Fold Over Background (human PILRA G78 on cells [16]): 23.6 fold
pSTAT3 Y705 induction, EC50 (nM) (human PILRA G78 on cells [16]): 12.2 nM
pSTAT3 Y705 induction, Fold Over Background (human PILRA G78 on cells [16]): 31.4 fold
EC50 (human PILRA R78 on cells [17]): 3.7 nM
EC50 (human PILRA G78 on cells [18]): 18.2 nM
Kd [19]: 117 nM
Kd [20]: 2.8 nM
Kd [21]: 47 nM
Kd [22]: 7.3 nM
EC50 (human PILRA G78 on cells [23]): 21.4 nM
B6: Anti-PILRA antibody clone 23 (antibody, V domains shown)
VH: EVQLVQSGAEVKKPGASVKVSCKASGYTFTEYYMYWVRQAPGQGLELIGRIDPEDGGTDYVEKFKNRATLTADTSTSTAYLELSSLRSEDTAVYFCASTIRGTVFVYWGQGTLVTVSS
VL: DIQMTQSPSSLSASVGDRVTITCRPSEDIYNGLAWYQQKPGKAPKLLIYNANSLHTGVPSRFSGSGSGTDYTLTISSLQPEDFATYYCQQYYDYPLTFGQGTKVEIK
notes: Humanized; also called Ab.23
